# Where a chain is given by its changes, count along the chain named. Numbers in names are those of the source. Marks after values point to notes of the source that are not given here.
# B1: T60A + M398L: carboxypeptidase Y double substitution mutant T60A + M398L (protein, UniProt P00729 112-532, looked up, variant T60A M398L)
# Carboxypeptidase Y: KIKDPKILGIDPNVTQYTGYLDVEDEDKHFFFWTFESRNDPAKDPVILWLNGGPGCSSLAGLFFELGPSSIGPDLKPIGNPYSWNSNATVIFLDQPVNVGFSYSGSSGVSNTVAAGKDVYNFLELFFDQFPEYVNKGQDFHIAGESYAGHYIPVFASEILSHKDRNFNLTSVLIGNGLTDPLTQYNYYEPMACGEGGEPSVLPSEECSAMEDSLERCLGLIESCYDSQSVWSCVPATIYCNNAQLAPYQRTGRNVYDIRKDCEGGNLCYPTLQDIDDYLNQDYVKEAVGAEVDHYESCNFDINRNFLFAGDWMKPYHTAVTDLLNQDLPILVYAGDKDFICNWLGNKAWTDVLPWKYDEEFASQKVRNWTASITDEVAGEVKSYKHFTYLRVFNGGHLVPFDVPENALSMVNEWIHGGFSL
# B2: T60A + M398Y: carboxypeptidase Y double substitution mutant T60A + M398Y (protein, UniProt P00729 112-532, looked up, variant T60A M398Y)
# Carboxypeptidase Y: B1 Carboxypeptidase Y with L398Y
# B3: M398R: carboxypeptidase Y S1' mutant, substitution M398R (protein, UniProt P00729 112-532, looked up, variant M398R)
# Carboxypeptidase Y: B1 Carboxypeptidase Y with A60T, L398R
# B4: T60Y + M398Y: carboxypeptidase Y double substitution mutant T60Y + M398Y (protein, UniProt P00729 112-532, looked up, variant T60Y M398Y)
# Carboxypeptidase Y: B1 Carboxypeptidase Y with A60Y, L398Y
# B5: T60Y + M398L: carboxypeptidase Y double substitution mutant T60Y + M398L (protein, UniProt P00729 112-532, looked up, variant T60Y M398L)
# Carboxypeptidase Y: B1 Carboxypeptidase Y with A60Y
# B6: T60F: carboxypeptidase Y S1' mutant, substitution T60F (protein, UniProt P00729 112-532, looked up, variant T60F)
# Carboxypeptidase Y: B1 Carboxypeptidase Y with A60F, L398M
# B7: T60D + M398Y: carboxypeptidase Y double substitution mutant T60D + M398Y (protein, UniProt P00729 112-532, looked up, variant T60D M398Y)
# Carboxypeptidase Y: B1 Carboxypeptidase Y with A60D, L398Y
# B8: T60E: carboxypeptidase Y S1' mutant, substitution T60E (protein, UniProt P00729 112-532, looked up, variant T60E)
# Carboxypeptidase Y: B1 Carboxypeptidase Y with A60E, L398M
# B9: T60D + M398L: carboxypeptidase Y double substitution mutant T60D + M398L (protein, UniProt P00729 112-532, looked up, variant T60D M398L)
# Carboxypeptidase Y: B1 Carboxypeptidase Y with A60D
# B10: T60C: carboxypeptidase Y S1' mutant, substitution T60C (protein, UniProt P00729 112-532, looked up, variant T60C)
# Carboxypeptidase Y: B1 Carboxypeptidase Y with A60C, L398M
# Experiment: Transpeptidation of FA-Ala-OBzl with H-Leu-NH2, Table 3
# Type: biochemical
# Settings: FA-Ala-OBzl 0.2 mM; H-Leu-NH2; pH 7.5
# Method: (§1) Transamidation reactions were carried out generally as described in PCT Application WO 95/20039. In general, the method included dissolving the nucleophile (H-Leu-NH2, unless otherwise indicated) in 50 mM HEPES, 5 mM EDTA and adjusting the pH to 7.5, 5 μl of peptide substrate (8 mM Bz-G-A-R-A-R-A-OH, unless otherwise indicated, in methanol) was added to 190 μl nucleophile solution followed by 5 μl enzyme, resulting in a substrate concentration of 0.2 mM.
# (§2) During the reaction, 20 μl aliquots were removed from the reaction mixture and added to 50 μl 1% trifluoroacetic acid to quench the reaction. The reactant composition was determined by HPLC using a Waters HPLC equipped with a C-18 Waters Novapac 4μ reverse phase column and various gradients of acetonitrile in 0.1% trifluoroacetic acid. The separation was monitored at 254 nm allowing the direct quantification of the products from the integrated peak areas. The composition of the reaction mixture was determined at least twvice during the reaction, the first when 20-50% (preferably 35%) of the substrate had been consumed in the reaction and the second time when 50-90% (preferably 80%) of the peptide substrate had been consumed.
# (§3) The fraction of aminolysis (fa) was expressed as the ratio between the formed aminolysis product and the sum of all products formed. Unconsumed substrate was disregarded in the calculations.
# Site specific mutagenesis was performed as described in Example 1 to produce the specific substitution mutants described below. Transamidation reactions were performed as described for Example 1.
# In table 3, below, KN(app) represents the nucleophile concentration at which fa is half of the maximum value (a measure for the dissociation constant of the nucleophile). famax is the highest possible fa obtained at saturation of the enzyme with the nucleophile.
# KN(app) indicates the concentration at which famax/2 is reached and thus describes the apparent binding constant of the nucleophile. Because the competing hydrolysis reaction is thought to occur while the leaving group remains attached to the to the acyl-enzyme intermediate, a low KN(app) is preferred.
row,Molecule,fa
1,B1,0.99^a
2,B2,0.97^a
3,B3,0.39^b
4,B4,0.99^a
5,B5,1.0^a
6,B6,0.98^a
7,B7,0.89^a
8,B8,0.94^a
9,B9,1.0^a
10,B10,0.98^a

# Same assay, conditions: nucleophile H-Leu-NH2 concentration at which fa is half of maximum; FA-Ala-OBzl 0.2 mM; pH 7.5
row,Molecule,KN(app)
1,B1,1.0^b mM
2,B2,9.1^b mM
3,B3,9.9^c mM
4,B4,5.4^b mM
5,B5,1.7^c mM
6,B7,9.2^c mM
7,B8,2.0^b mM
8,B9,2.0^b mM

# Experiment: Transpeptidation of FA-Ala-Xaa-OH with H-Gly-NH2, Table 2
# Type: biochemical
# Settings: FA-Ala-Ala-OH 0.2 mM; 1.9 M H-Gly-NH2; pH 7.5; room temperature
# Method: as §1, §2, §3
# Site specific mutagenesis was performed as described for Example 1 to produce the S1 mutants used below.
# Transamidation reactions were performed as described for Example 1.
row,Molecule,"Fraction of aminolysis (fa), P1' Ala"
1,B1,0.92
2,B2,0.80
3,B3,0.48
4,B4,0.74
5,B5,0.92
6,B6,0.85
7,B7,0.70
8,B8,0.82
9,B9,0.89
10,B10,0.92

# Same assay, conditions: FA-Ala-Leu-OH 0.2 mM; 1.9 M H-Gly-NH2; pH 7.5; room temperature
row,Molecule,"Fraction of aminolysis (fa), P1' Leu"
1,B1,0.94
2,B2,0.83
3,B3,0.16
4,B4,0.77
5,B5,0.95
6,B6,0.17
7,B7,0.75
8,B8,0.05
9,B9,0.89
10,B10,0.19

# Same assay, conditions: FA-Ala-Met-OH 0.2 mM; 1.9 M H-Gly-NH2; pH 7.5; room temperature
row,Molecule,"Fraction of aminolysis (fa), P1' Met"
1,B1,0.72
2,B2,0.83
3,B3,0.33
4,B4,0.76
5,B5,0.93
6,B6,0.21
7,B7,0.72
8,B8,0.07
9,B9,0.66
10,B10,0.15

# Same assay, conditions: FA-Ala-Phe-OH 0.2 mM; 1.9 M H-Gly-NH2; pH 7.5; room temperature
row,Molecule,"Fraction of aminolysis (fa), P1' Phe"
1,B1,0.52
2,B2,0.81
3,B3,0.11
4,B4,0.75
5,B5,0.87
6,B6,0.12
7,B7,0.56
8,B8,0.02
9,B9,0.62
10,B10,0.08

# Same assay, conditions: FA-Ala-Val-OH 0.2 mM; 1.9 M H-Gly-NH2; pH 7.5; room temperature
row,Molecule,"Fraction of aminolysis (fa), P1' Val"
1,B1,0.91
2,B2,0.81
3,B3,0.26
4,B4,0.74
5,B5,0.89
6,B6,0.15
7,B7,0.71
8,B8,0.33
9,B9,0.90
10,B10,0.27

# Same assay, conditions: larger, hydrophobic leaving group such as leucine
row,Molecule,"fraction of aminolysis compared to wild type, in words"
1,B1,further improved the fraction of aminolysis
2,B2,further improved the fraction of aminolysis
3,B4,further improved the fraction of aminolysis
4,B5,further improved the fraction of aminolysis
5,B7,further improved the fraction of aminolysis
6,B9,further improved the fraction of aminolysis

# Source: patent publication US20010010923A1, “MODIFIED CARBOXYPEPTIDASE” (priority 1997, published 2001)
